Measurements reported in patent US9428586B2, “Heparanase splice variant” (COMPUGEN LTD, priority 2010, dated 2016).

Tests used:
Binding to heparin beads = settings: lysates of over expressing 293 cells, heparin beads
Source text: FIG. 7. […] A. Cell lysates. […] B,C. Peptide analysis. […] C. Enzymatic activity.

Concanavalin A = Concanavalin A (Canavalia ensiformis, UniProt P02866); settings: lysates of over expressing 293 cells
Method: FIG. 7. […] A. Cell lysates. […] Control (Vo), heparanase and T5 transfected 293 cells were left untreated (−) or incubated with heparin (+, 50 μg/ml) for 20 h under serum-free conditions. […] B,C. Peptide analysis. Peptides corresponding to the heparin binding domain of heparanase (KKDC) or T5 (CKKK) which includes its unique three amino acids (SKK), and control scrambled (Scr) peptide were subjected to gel electrophoresis prior to or following incubation with heparin beads (+Heparin). C. Enzymatic activity.

Src = Src phosphorylation (immunoblot, densitometry) in CAG myeloma cells; type: cell-based, human; settings: infected CAG myeloma cells, serum-free
Method: (§1) FIG. 3. T5 augments Src phosphorylation. A. Over expression. CAG myeloma (left) and 293 (right) cells infected with heparanase (Hepa), T5, or control empty vector (Vo) were grown in the absence (−) or presence (+) of heparin (50 μg/ml) under serum-free conditions. Total cell lysates were subjected to immunoblotting applying anti-heparanase 1453 (upper and second panels), anti-phospho-Src (p-Src, third panels), anti-Src (fourth panels) anti-phospho-Erk (p-Erk, fifth panels), and anti-Erk2 (sixth panels) antibodies. Src phosphorylation index was calculated by densitometry analysis of phosphorylated Src levels divided by the total Src values. Data is presented as average fold increase ±SE of Src phosphorylation compared with control, Vo cells, set arbitrary to a value of 1 (lower panels) of five independent experiments. B. Gene silencing. Parental 293 cells were transfected with anti-heparanase, anti-T5, or control siRNAs. Total RNA was extracted and RT-PCR analysis was performed applying T5 (upper panel), heparanase (Hepa, second panel) and GAPDH (third panel) specific primers. Corresponding cell lysates were subjected to immunoblotting applying phospho-Src (p-Src, fourth panel), Src (fifth panel), phospho-Erk (p-Erk, sixth panel) and Erk2 (seventh panel) antibodies. Src phosphorylation index was calculated as above and is shown graphically in the lower panel. Note decreased Src phosphorylation levels upon T5 down regulation.
Preparation of cell lysates, protein blotting, and measurement of heparanase enzymatic activity were carried out as described previously (Zetser, A., et al., 2006, Cancer Res 66, 1455-1463; Fux, L., et al., 2009, Cancer Res 69, 1758-1767).

Erk = Erk phosphorylation (immunoblot) in CAG myeloma and 293 cells; type: cell-based, human
Method: as §1, with “Note decreased Src phosphorylation levels upon T5 down regulation.” left out

CAG myeloma cells = assay: CAG myeloma tumor xenograft development and immunohistochemistry; type: in vivo, athymic nude mice
Method: FIG. 5. T5 enhances tumor xenograft development. Control (Vo), heparanase-, and T5-infected CAG myeloma cells were injected subcutaneously (1×10^6/0.1 ml) and tumor volume was calculated (A). At the end of the experiment on day 37, tumors were resected, photographed (A, inset) and weighted (B). C. Immunohistochemical analysis. Paraffin-embedded 5 micron sections were stained with hematoxilin & eosin (left column), anti-CD31 (second left column), and anti-smooth muscle actin (SMA, two right columns) antibodies. Note increased blood vessels density and maturation (recruitment of SMA-positive cells) in xenografts produced by heparanase- and T5-infected cells. Cells from exponential cultures of control-, heparanase-, and T5-infected CAG myeloma cells were detached with trypsin/EDTA, washed with PBS and brought to a concentration of 1×10^7 cells/ml. Cell suspension (1×10 6/0.1 ml) was inoculated subcutaneously at the right flank of 5-weeks old female athymic nude mice (n=7). Xenograft size was determined twice a week by externally measuring tumors in two dimensions using a caliper. At the end of the experiment, mice were sacrificed and xenografts were removed, weighted and fixed in formalin. Paraffin-embedded 5 micron sections were subjected to immunostaining with anti-PECAM-1 (CD31) or anti-smooth muscle actin (1A4, Sigma) antibodies, using the Envision kit, according to the manufacturer's (Dako, Glostrup, Denmark) instructions, as described (Fux, L., et al., 2009, Cancer Res 69, 1758-1767). All animal experiments were approved by the Animal Care Committee of the Technion, Haifa, Israel.

HUVEC = assay: Tube-like structure formation on Matrigel; type: cell-based, human; settings: T5 lenti virus infected HUVEC vs Vo, 24 h and 48 h
Method: FIG. 9. A. Tube-like structure formation. Human umbilical vein endothelial cells (HUVEC) were infected with control (Vo) or T5 lenti virus constructs and plated on reconstituted basement membrane (Matrigel). Spontaneous organization into tube-like structures was examined after 24 h (upper panels) and 48 h (lower panels). Note network stabilization upon T5 over expression at 48 h. B Immunofluorescent staining of control (Vo), heparanase-, and T5-infected HUVEC cells applying anti-heparanase 733 antibody (green, left panels). Merged images with nuclear staining (Topro, red) are shown in the right panels. Note T5 localization to endocytic vesicles.

B1: T5: novel splice variant of heparanase; truncated, enzymatically inactive 169 amino acid protein (protein, listed as Homo sapiens)
chain: MLLRSKPALPPPLMLLLLGPLGPLSPGALPRPAQAQDVVDLDFFTQEPLHLVSPSFLSVTIDANLATDPRFLILLGSPKLRTLARGLSPAYLRFGGTKTDFLIFDPKKESTFEERSYWQSQVNQDICKYGSIPPDVEEKLRLEWPYQEQLLLREHYQKKFKNSTYSSKK
- heparin binding of protein in cell lysates (Binding to heparin beads): failed to bind heparin
- interaction with the lectin Concanavalin A (Concanavalin A): retained
- Src phosphorylation increase vs control Vo cells (Src): comparable induction of Src phosphorylation
- Erk phosphorylation upon over expression (Erk): not affected
- pericytes associated with blood vessels (smooth muscle actin) (CAG myeloma cells; CAG xenografts, immunohistochemistry): significantly increased number of pericytes
- average weight of xenografts (CAG myeloma cells; day 37, subcutaneous infected CAG cells, control 58±11 mg): 738 ± 114 mg
- development of tumor xenografts after day 21 vs control cells (CAG myeloma cells; subcutaneous infected CAG cells): markedly enhanced
- endothelial cell organization (tube formation) on Matrigel (HUVEC): maintained for a relatively long period of time
